Assay results reported in patent US5633145, “TNFα receptor-derived binding protein” (The Mathilda and Terence Kennedy Institute of Rheumatology, dated 1997).

What was measured:
recombinant human TNFβ = target: T1, recombinant human TNFβ (human, UniProt P01374); experiment: competition with 1 nM 125I-TNFα on COS-7 cells transfected with the TNFR cDNA; competitor 125I-TNFα
T1 sequence: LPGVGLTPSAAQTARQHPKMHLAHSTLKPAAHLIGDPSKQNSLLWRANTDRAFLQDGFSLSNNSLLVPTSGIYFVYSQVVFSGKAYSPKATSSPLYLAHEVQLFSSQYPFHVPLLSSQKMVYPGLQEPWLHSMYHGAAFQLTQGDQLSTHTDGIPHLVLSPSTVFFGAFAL
Procedure: (§1) COS cells transfected with the TNFα receptor cDNA (prTNFR, 1300 bp EcoRI fragment) were incubated for 24 hours and then seeded into six well tissue culture plates (Nunc) at 4.5 ×10^8 cells per well. The cells were incubated for a further 48 hours and then receptor expression was quantitated by radioligand binding for 2 hours at 4° C. […] Binding data was analysed by the method of Scatchard (14).

recombinant human TNFα = recombinant human TNFα (human, UniProt P01375, radioiodinated (125I, Iodogen method) in the radioligand binding assays; unlabelled as competitor and in the cytotoxicity assays); experiment: radioligand binding of 125I-TNFα to COS cells transfected with prTNFR, Scatchard analysis, 4 °C
Procedure: as §1
The resulting plasmid was transfected into COS cells which were analyzed for TNF receptor expression after three days.

B1: recombinant human TNFα 55 kD receptor expressed in COS-7 cells from plasmid prTNFR (receptor)
chain: DSVCPQGKYIHPQNNSICCTKCHKGTYLYNDCPGPGQDTDCRECESGSFTASENHLRHCLSCSKCRKEMGQVEISSCTVDRDTVCGCRKNQYRHYWSENLFQCFNCSLCLNGTVHLSCQEKQNTVCTCHAGFFLRENECVSCSNCKKSLECTKLCLPQIENVKGTEDSGTTVLLPLVIFFGLCLLSLLFIGLMYRYQRWKSKLYSIVCGKSTPEKEGELEGTTTKPLAPNPSFSPTPGFTPTLGFSPVPSSTFTSSSTYTPGDCPNFAAPRREVAPPYQGADPILATALASDPIPNPLQKWEDSAHKPQSLDTDDPRTLYAVVENVPPLRWKEF
B1 was tested, and the binding result (recombinant human TNFβ) was “binds” and the Ka (recombinant human TNFα) was 2.5e+09 M⁻¹.
